Reference: article PMC11761039
Each block holds one substance with its values, some of them ahead of it.

Assays:
[1] = target: MBP-tagged wild-type G2L4 RT; assay: SEC
[2] = target: MBP-tagged G2L4 RT dimer interface NTE + Thumb mutant (R12/Y15/R398A); assay: native gel or EMSA
[3] = target: MBP-tagged G2L4 RT dimer interface Thumb mutant (R397/R398/R404A); assay: native gel or EMSA

Substance: MBP-tagged wild-type G2L4 RT (enzyme)
- stoichiometry N [1]: 2

- proportion of monomers [2]: 36%
Substance: MBP-tagged G2L4 RT dimer interface NTE + Thumb mutant (R12/Y15/R398A) (enzyme)

- proportion of monomers [3]: 25%
Substance: MBP-tagged G2L4 RT dimer interface Thumb mutant (R397/R398/R404A) (enzyme)
